Results: patent US20110243928A1 (published 2011)

What was measured:
[1] = target: T1, E. coli-expressed recombinant human IL-4 (human, UniProt P05112 25-153); test: binding ELISA
T1 sequence (looked up): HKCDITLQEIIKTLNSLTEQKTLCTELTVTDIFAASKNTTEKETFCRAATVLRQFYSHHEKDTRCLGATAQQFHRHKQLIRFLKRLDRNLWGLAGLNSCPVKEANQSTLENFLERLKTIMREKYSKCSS

[2] = target: T2, E. coli-expressed recombinant human GM-CSF (human, UniProt P04141 18-144); test: binding ELISA
[3] = target: T3, E. coli-expressed recombinant human IL-13 (human, UniProt P35225 35-146); test: human IL-13 binding sandwich ELISA
T3 construct: Untagged E. coli-expressed human IL-13; also called hIL-13; human IL13 (CA)
T3 sequence (P35225 other isoform, or with tags, fused parts or gaps): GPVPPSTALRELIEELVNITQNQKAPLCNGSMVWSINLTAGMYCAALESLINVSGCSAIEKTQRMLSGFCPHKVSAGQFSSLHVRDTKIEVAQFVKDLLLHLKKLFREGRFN

[4] = target: T4, E. coli-expressed recombinant cynomolgus IL-13 (cynomolgus, UniProt Q5I6E4 21-132 (Macaca thibetana entry)); test: cell-based or functional assay
T4 chain: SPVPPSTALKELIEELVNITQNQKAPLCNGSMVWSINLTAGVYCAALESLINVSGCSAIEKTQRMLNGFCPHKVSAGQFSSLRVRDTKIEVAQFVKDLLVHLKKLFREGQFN

[5] = target: T3, E. coli-expressed recombinant human …; test: cell-based or functional assay
[6] = target: E. coli-expressed recombinant Q130 human IL-13 (human, UniProt P35225 35-146, limits assumed); test: cell-based or functional assay
Sequence of E. coli-expressed recombinant Q130 human IL-13 (P35225 35-146 limits assumed): as the sequence (P35225 other isoform, or with tags, fused parts or gaps) above, with R110Q counted along it

[7] = target: mammalian-expressed (CHO cell) human IL-13 (human, UniProt P35225 35-146, limits assumed); test: cell-based or functional assay
Sequence of mammalian-expressed (CHO cell) human IL-13 (P35225 other isoform, or with tags, fused parts or gaps limits assumed): as the sequence (P35225 other isoform, or with tags, fused parts or gaps) above

[8] = target: T4, E. coli-expressed recombinant …; test: BIAcore analysis 1, antibody captured, IL-13 in solution
Experimental: (§1) Completed for both human and cynomolgus IL-13 (E. coli-expressed protein). The quoted KD values are the average from 5 different IL-13 concentration curves (done in triplicate). Note that mass transfer issues were apparent in this analysis and that a modified experimental protocol (to correct for this issue) has been completed in analysis 4 (where no mass transfer issues were present).
(§2) The kinetics analysis was performed on a Biacore 3000 machine, using an antibody capture method. Briefly, for the chimeric 6A1 and humanised antibody constructs Protein A capture was used, whilst for the parental murine 6A1 antibody, capture was by a anti-mouse Fc antibody supplied by Biacore. Briefly, the method is as follows, the capture ligand was immobilised to a CM5 Biosensor chip by primary amine coupling in accordance with Biacore standard protocols and using the reagents supplied in Biacores' primary amine coupling kit. The method involves activation CM5 sensor surface by passing a solution of 50 mM N-hydroxy-succinimide (NHS) and 200 mM N-ethyl-N′-dimethylaminopropyl […] (EDC) over the surface. Then, the capture ligand (dissolved in acetate buffer pH5 or pH4.5) was coupled to the activated sensor surface after which any still activated esters were blocked by an injection of 1M ethanolamine hydrochloride, pH8.5.
(§3) The candidate antibody was then passed over the Protein A or anti-mouse Fc antibody surface, depending on whether it was human or mouse in origin and captured. Once a stable binding signal was seen IL13 was passed over the captured antibody surface at various defined concentrations. The subsequent binding curves were analysed with Biacore analysis software BIAeval v4.1 to determine kinetics. The experiments were carried out using Biacore HBS-EP buffer.

[9] = target: T3, E. coli-expressed recombinant human …; test: as above
Experimental: as §1, §2, §3

[10] = target: T5, E. coli-expressed recombinant det-1 tagged human IL-13 (human, UniProt P35225 35-146); test: competition ELISA: inhibition of det-1 tagged human IL-13 binding to human IL-13Rα2-Fc
T5 construct: also called Det-1 tagged human IL-13 (made in-house); not shown: det-1 tag
T5 sequence (P35225 other isoform, or with tags, fused parts or gaps): as above

[11] = target: T4, E. coli-expressed recombinant …; test: cynomolgus IL-13 binding sandwich ELISA
[12] = target: T6, native (PBMC derived) human IL-13 (human, UniProt P35225 35-146, limits assumed); test: ELISA on Th2 cell supernatant read against a standard curve
T6 construct: IL-13 in supernatant of stimulated human CD4+ Th2 cells; also called native human IL-13; Native IL-13
T6 sequence (P35225 other isoform, or with tags, fused parts or gaps limits assumed): as the sequence (P35225 other isoform, or with tags, fused parts or gaps) above

[13] = target: T5, E. coli-expressed recombinant det-1 …; test: competition ELISA: inhibition of det-1 tagged human IL-13 binding to human IL-13Rα1-Fc
[14] = target: T7, 16mer biotinylated human IL-13 peptide number 24 (human, N-terminal biotin; C-terminal amide); test: BIAcore analysis 3, antibody over biotinylated peptide on SA chip
T7 construct: format Biotin-SGSG-PEPTIDE-amide; also called Peptide 24
T7 peptide: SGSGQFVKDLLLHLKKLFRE
Experimental: Completed for the 16mer biotinylated human IL-13 peptide number 24 (identified as the linear binding epitope for parental mAb 6A1, see section 6.7). Note that the absolute KD values obtained for binding to peptide ligands are often quite different to those seen for binding to whole protein targets.
The kinetics analysis was performed on a Biacore 3000 machine using direct binding of antibody to immobilised IL-13 peptide. Briefly, IL-13 biotinylated peptide was captured using a Biacore SA (strepavidin) Biosensor chip. The antibodies were then passed over the sensor surface at various concentrations. The subsequent binding curves were analysed with Biacore analysis software BIAeval 4.1 to determine kinetics. The experiment was carried out using Biacore HBS-EP buffer

[15] = target: T4, E. coli-expressed recombinant …; test: BIAcore analysis 4, antibody captured on Protein A, IL-13 in solution
Experimental: (§4) Completed for both human and cynomolgus IL-13 (E. coli-expressed protein). The quoted KD values are the average from 5 different IL-13 concentration curves (done in triplicate).
as §2, §3

[16] = target: T3, E. coli-expressed recombinant human …; test: as above
Experimental: as §4, §2, §3

[17] = target: T3, E. coli-expressed recombinant human …; test: human IL-13 binding ELISA, CHO supernatant
[18] = target: T3, E. coli-expressed recombinant human …; test: sandwich ELISA
[19] = target: T2, E. coli-expressed recombinant human …; test: sandwich ELISA
[20] = target: T1, E. coli-expressed recombinant human IL-4; test: human IL-4 binding sandwich ELISA

T2 sequence (P04141 18-144 limits assumed): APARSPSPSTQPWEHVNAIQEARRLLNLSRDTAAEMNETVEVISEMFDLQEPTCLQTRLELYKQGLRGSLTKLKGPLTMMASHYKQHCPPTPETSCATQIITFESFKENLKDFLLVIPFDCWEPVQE

B1: L2+A1 (antibody, human IgG1, kappa, V domains shown)
VH: QVQLVQSGAEVKKPGSSVKVSCKASGFYIKDTYMHWVRQAPGQGLEWMGTIDPANGNTKYVPKFQGRVTITADESTSTAYMELSSLRSEDTAVYYCARSIYDDYHYDDYYAMDYWGQGTLVTVSS
VL: DIVMTQSPLSLPVTPGEPASISCRSSQNIVHINGNTYLEWYLQKPGQSPRLLIYKISDRFSGVPDRFSGSGSGTDFTLKISRVEADDVGVYYCFQGSHVPWTFGQGTKLEIKR
notes: Humanised 6A1, VH construct A1 and VL construct L2; also called A1L2
[1]
  binding result: no binding (tested: 30 µg/ml)
[2]
  binding result: no binding (tested: 30 µg/ml)
[3]
  EC50: 0.024 µg/mL
[4]
  Mean ND50 for 2 assays: 0.12 µg/mL
[5]
  Mean ND50 for 2 assays: 0.608 µg/mL
[6]
  Mean ND50 for 2 assays: 0.705 µg/mL
[7]
  Mean ND50 for 2 assays: 1.2 µg/mL
[8]
  Kd: 97 pM
  koff: 5.58e-05 s⁻¹
  kon: 577000 M⁻¹ s⁻¹
[9]
  Kd: 310 pM
  koff: 0.000156 s⁻¹
  kon: 507000 M⁻¹ s⁻¹
[10]
  IC50: 0.117 µg/mL
[11]
  EC50: 0.028 µg/mL
[12]
  Native IL-13 (ng/ml) detected in Th2 supernatant: 22.7 ng/mL
[13]
  IC50: 0.056 µg/mL
[14]
  Kd: 9350 pM
  koff: 0.00167 s⁻¹
  kon: 179000 M⁻¹ s⁻¹
[15]
  Kd: 55 pM
  koff: 4.25e-05 s⁻¹
  kon: 772000 M⁻¹ s⁻¹
[16]
  Kd: 153 pM
  koff: 0.000139 s⁻¹
  kon: 907000 M⁻¹ s⁻¹

B2: A2L1 (antibody, human IgG1, kappa, V domains shown)
VH: QVQLVQSGAEVKKPGSSVKVSCKASGFYIKDTYMHWVIQAPGQGLEWMGTIDPANGNTKYVPKFQGRVTITADESTSTAYMELSSLRSEDTAVYYCARSIYDDYHYDDYYAMDYWGQGTLVTVSS
VL: DIVMTQSPLSLPVTPGEPASISCRSSQNIVHINGNTYLEWYLQKPGQSPRLLIYKISDRFSGVPDRFSGSGSGTDFTLKISRVEADDVGIYYCFQGSHVPWTFGQGTKLEIKR
notes: Humanised 6A1 combination, tested as CHO cell supernatant
[17]
  binding result: binds

B3: A4L1 (antibody, human IgG1, kappa, V domains shown)
VH: QVQLVQSGAEVKKPGSSVRVSCKASGFYIKDTYMHWVIQAPGQGLEWMGTIDPANGNTKYVPKFQGRVTITADTSTSTAYMRLSSLRSEDTAVYYCARSIYDDYHYDDYYAMDYWGQGTLVTVSS
VL: DIVMTQSPLSLPVTPGEPASISCRSSQNIVHINGNTYLEWYLQKPGQSPRLLIYKISDRFSGVPDRFSGSGSGTDFTLKISRVEADDVGIYYCFQGSHVPWTFGQGTKLEIKR
notes: as for B2
[18]
  binding result: binds

B4: A4L2 (antibody, human IgG1, kappa, V domains shown)
VH: QVQLVQSGAEVKKPGSSVRVSCKASGFYIKDTYMHWVIQAPGQGLEWMGTIDPANGNTKYVPKFQGRVTITADTSTSTAYMRLSSLRSEDTAVYYCARSIYDDYHYDDYYAMDYWGQGTLVTVSS
VL: DIVMTQSPLSLPVTPGEPASISCRSSQNIVHINGNTYLEWYLQKPGQSPRLLIYKISDRFSGVPDRFSGSGSGTDFTLKISRVEADDVGVYYCFQGSHVPWTFGQGTKLEIKR
notes: as for B2
[18]
  binding result: binds

B5: A3L1 (antibody, human IgG1, kappa, V domains shown)
VH: QVQLVQSGAEVKKPGSSVKVSCKASGFYIKDTYMHWVIQAPGQGLEWMGTIDPANGNTKYVPKFQGRVTITADTSTSTAYMELSSLRSEDTAVYYCARSIYDDYHYDDYYAMDYWGQGTLVTVSS
VL: DIVMTQSPLSLPVTPGEPASISCRSSQNIVHINGNTYLEWYLQKPGQSPRLLIYKISDRFSGVPDRFSGSGSGTDFTLKISRVEADDVGIYYCFQGSHVPWTFGQGTKLEIKR
notes: as for B2
[17]
  binding result: binds

B6: A3L2 (antibody, human IgG1, kappa, V domains shown)
VH: QVQLVQSGAEVKKPGSSVKVSCKASGFYIKDTYMHWVIQAPGQGLEWMGTIDPANGNTKYVPKFQGRVTITADTSTSTAYMELSSLRSEDTAVYYCARSIYDDYHYDDYYAMDYWGQGTLVTVSS
VL: DIVMTQSPLSLPVTPGEPASISCRSSQNIVHINGNTYLEWYLQKPGQSPRLLIYKISDRFSGVPDRFSGSGSGTDFTLKISRVEADDVGVYYCFQGSHVPWTFGQGTKLEIKR
notes: as for B2
[17]
  binding result: binds

B7: A2L2 (antibody, human IgG1, kappa, V domains shown)
VH: QVQLVQSGAEVKKPGSSVKVSCKASGFYIKDTYMHWVIQAPGQGLEWMGTIDPANGNTKYVPKFQGRVTITADESTSTAYMELSSLRSEDTAVYYCARSIYDDYHYDDYYAMDYWGQGTLVTVSS
VL: DIVMTQSPLSLPVTPGEPASISCRSSQNIVHINGNTYLEWYLQKPGQSPRLLIYKISDRFSGVPDRFSGSGSGTDFTLKISRVEADDVGVYYCFQGSHVPWTFGQGTKLEIKR
notes: as for B2
[17]
  binding result: binds

B8: chimaeric 6A1 (antibody, human IgG1, V domains shown)
VH: EIQLQQSVAELVRPGASVRLSCTASGFYIKDTYMHWVIQRPEQGLEWIGTIDPANGNTKYVPKFQGKATITADTSSNTAYLRLSSLTSEDTAIYYCARSIYDDYHYDDYYAMDYWGQGTSVTVSS
VL: DVLMTQTPLSLPVSLGDQASISCRSSQNIVHINGNTYLEWYLQKPGQSPKLLIYKISDRFSGVPDRFSGSGSGTDFTLKISRVEAEDLGVYYCFQGSHVPWTFGGGTKLEIK
notes: Parent murine 6A1 V regions on human IgG1/k wild type C regions, expressed in CHO cells; also called 6A1c; 6A1 chimaeric antibody
[3]
  EC50: 0.015 µg/mL
[4]
  Mean ND50 for 2 assays: 0.059 µg/mL
[5]
  Mean ND50 for 2 assays: 0.119 µg/mL
[6]
  Mean ND50 for 2 assays: 0.128 µg/mL
[7]
  Mean ND50 for 2 assays: 0.285 µg/mL
[8]
  Kd: 55 pM
  koff: 3.27e-05 s⁻¹
  kon: 592000 M⁻¹ s⁻¹
[9]
  Kd: 43 pM
  koff: 2e-05 s⁻¹
  kon: 464000 M⁻¹ s⁻¹
[10]
  IC50: 0.04 µg/mL
[11]
  EC50: 0.018 µg/mL
[19]
  binding result: no binding
[12]
  Native IL-13 (ng/ml) detected in Th2 supernatant: 19.6 ng/mL
[13]
  IC50: 0.034 µg/mL
[14]
  Kd: 3580 pM
  koff: 0.000919 s⁻¹
  kon: 257000 M⁻¹ s⁻¹
[20]
  binding result: no binding
[15]
  Kd: 30 pM
  koff: 2.65e-05 s⁻¹
  kon: 885000 M⁻¹ s⁻¹
[16]
  Kd: 38 pM
  koff: 4e-05 s⁻¹
  kon: 1.05e+06 M⁻¹ s⁻¹
